Source: PMC7793584 (Science Advances, 2021)

B1: Hda1 (enzyme)
chain: MDSVMVKKEVLENPDHDLKRKLEENKEEENSLSTTSKSKRQVIVPVCMPKIHYSPLKTGLCYDVRMRYHAKIFTSYFEYIDPHPEDPRRIYRIYKILAENGLINDPTLSGVDDLGDLMLKIPVRAATSEEILEVHTKEHLEFIESTEKMSREELLKETEKGDSVYFNNDSYASARLPCGGAIEACKAVVEGRVKNSLAVVRPPGHHAEPQAAGGFCLFSNVAVAAKNILKNYPESVRRIMILDWDIHHGNGTQKSFYQDDQVLYVSLHRFEMGKYYPGTIQGQYDQTGEGKGEGFNCNITWPVGGVGDAEYMWAFEQVVMPMGREFKPDLVIISSGFDAADGDTIGQCHVTPSCYGHMTHMLKSLARGNLCVVLEGGYNLDAIARSALSVAKVLIGEPPDELPDPLSDPKPEVIEMIDKVIRLQSKYWNCFRRRHANSGCNFNEPINDSIISKNFPLQKAIRQQQQHYLSDEFNFVTLPLVSMDLPDNTVLCTPNISESNTIIIVVHDTSDIWAKRNVISGTIDLSSSVIIDNSLDFIKWGLDRKYGIIDVNIPLTLFEPDNYSGMITSQEVLIYLWDNYIKYFPSVAKIAFIGIGDSYSGIVHLLGHRDTRAVTKTVINFLGDKQLKPLVPLVDETLSEWYFKNSLIFSNNSHQCWKENESRKPRKKFGRVLRCDTDGLNNIIEERFEEATDFILDSFEEWSDEE
B2: Hda2 (natural protein)
chain: MSRKNSKKLKVYYLPVTLTQFQKDLSEILISLHAKSFKASIIGEPQADAVNKPSGLPAGPETHPYPTLSQRQLTYIFDSNIRAIANHPSLLVDHYMPRQLLRMEPTESSIAGSHKFQVLNQLINSICFRDREGSPNEVIKCAIIAHSIKELDLLEGLILGKKFRTKRLSGTSLYNEKHKFPNLPTVDSTINKDGTPNSVSSTSSNSNSTSYTGYSKDDYDYSVKRNLKKRKINTDDWLFLATTKHLKHDQYLLANYDIDMIISFDPMLEVELPALQVLRNNANKDIPIIKLLVQNSPDHYLLDSEIKNSSVKSSHLSNNGHVDDSQEYEEIKSSLLYFLQARNAPVNNCEIDYIKLVKCCLEGKDCNNILPVLDLITLDEASKDSSDSGFWQPQLTKLQYSSTELPLWDGPLDIKTYQTELMHRAVIRLRDIQDEYAKGTVPLYEKRLNETQRQNQLDEIKNSVGLTFKKKQEVEKSINDSEKRLKHAMTESTKLQNKINHLLKNRQELENFNKLPSNTISSENHLEEGSALADKLKEYIDKNATLFNKLKELQQANAEKSKLNDELRSKYQIESSKAAESAQTLKILQESMKSLENEVNGPLTKFSTESLKKELERLQNDFQSLKARNKFLKNYITLMNRQYDLKNKNNVQVEKAAANGTRFRSTRSNTPNYT
B3: Hda3 (natural protein)
chain: MDLLRILDTKPIPTIVDATTLGISGNTSGDYWLPTTMSLYQKELTDQIVSLHYSDILRYFETSHYKEDVILESMKTMCLNGSLVATHPYLLIDHYMPKSLITRDVPAHLAENSGKFSVLRDLINLVQEYETETAIVCRPGRTMDLLEALLLGNKVHIKRYDGHSIKSKQKANDFSCTVHLFSSEGINFTKYPIKSKARFDMLICLDTTVDTSQKDIQYLLQYKRERKGLERYAPIVRLVAINSIDHCRLFFGKKFDKNSREYLENVTAAMVILRDRLGTLPPDLRPIYSQKLHYLVEWLENPTVPWPLPDIYPLKQYTSMDVERSLLTEVHFKKSDDQLEDAFSNCSKKRGRHGANKAASSTVAGIEDNITPSFYSTKRLKNDYYTNPLKQDMTQLTGITTADNSSNVNYHLSSGIITHKLIQSMGEVYMDICVQKQELDDYSCLDDLQNDHLKFFSNEDEKIIKEYETVLRTNNENLNRSHELEVENNLKFSQIETLEKDIETLKGSLMAQGETLSKLKDAFVKTDNVQDEIEKEERVSVSRDTEKKYMEQEIKRAVDAIRENEEETHKLNEKQNGLESELKLKFEKSEISTKELNEKIGFLKKELKLENDLNEELVGQLSKTMDNLENLTIPRVRTQNGNTKKKSRAKKPGNV

Tests used:
[1] = molecular target: HDAC protomer complex (Hda1_(2)-Hda2-Hda3 heterotetrameric complex) (S. cerevisiae) (UniProt P53973); assay: cryo-EM structure
SEC-MALS = molecular target: the molecule itself; assay: SEC-MALS
Hda1 [2] = molecular target: B1; assay: SEC-MALS
Hda1 [3] = molecular target: B1; assay: cryo-EM structure
Hda2 = molecular target: B2; assay: cryo-EM structure

HDAC protomer complex (Hda1_(2)-Hda2-Hda3 heterotetrameric complex) (from UniProt P53973;Q06629;Q06623)
stoichiometry N [1]: 2

B1
stoichiometry N (SEC-MALS): 2

B2
binding result (Hda1 [2]): binds

B3
binding result (Hda1 [3]): binds | binding result (Hda2): binds
